Data published in patent US20090291504A1.

Columns and labels:
[1] = molecular target: Cre fragments alpha5 + beta1 (Casanova et al. 2003) (bacteriophage P1?) (UniProt P06956+P06956); assay: cell_activity; conditions: HEK293 GFP reporter
[2] = tested on: Cre fragment β1 (reported in Casanova et al., 2003)
[3] = molecular target: nlcCre (cCre with an extra SV40 large T antigen NLS) (Simian Virus 40; bacteriophage P1) (UniProt P06956); assay: cell-based or functional assay
[4] = molecular target: cCre (C-terminal half of Cre fused at its N-terminus to the C-peptide leucine zipper) (bacteriophage P1) (UniProt P06956); assay: cell-based or functional assay
[5] = molecular target: T1, C-terminal Cre fragment identical to that in cCre, without leucine zipper peptide, P06956
T1 chain: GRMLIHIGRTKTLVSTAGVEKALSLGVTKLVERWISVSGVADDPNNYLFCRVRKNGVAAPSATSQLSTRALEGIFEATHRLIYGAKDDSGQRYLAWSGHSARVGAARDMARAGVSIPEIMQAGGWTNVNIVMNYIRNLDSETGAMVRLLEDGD

Question: With “ATAACTTCGTATAATGTATGCTATACGAAGTTAT (double strand) [loxP]” as the molecule, how does the Cre recombinase activity relative to intact Cre [1] read?
Answer: < 2%

Question: With “Cre fragment α5 (reported in Casanova et al., 2003)” as the molecule, how does the “Cre activity recovered from fragments lacking protein interaction motifs (tissue culture)” value [2] read?
Answer: less than 2% Cre activity was recovered

Question: With “nCre (N-terminal half of Cre with an N-terminal SV40 large T antigen NLS, fused at its C-terminus to the N-peptide leucine zipper) (from UniProt P06956 1-190) (enzyme)” as the molecule, how does the Cre activity recovered (GFP/mCherry reporter, flow cytometry, co-transfected HEK293 cells) [3] read?
Answer: 27.2%

Question: What about the recombinase activity of intact Cre molecule reconstituted (GFP/mCherry reporter, flow cytometry, co-transfected HEK293 cells) [4] of the same molecule?
Answer: 12.1%

B1: N-terminal Cre fragment identical to that in nCre, without leucine zipper peptide (protein)
chain: MSNLLTVHQNLPALPVDATSDEVRKNLMDMFRDRQAFSEHTWKMLLSVCRSWAAWCKLNNRKWFPAEPEDVRDYLLYLQARGLAVKTIQQHLGQLNMLHRRSGLPRPSDSNAVSLVMRRIRKENVDAGERAKQALAFERTDFDQVRSLMENSDRCQDIRNLAFLGIAYNTLLRIAEIARIRVKDISRTDG
Question: For B1, which “Cre activity generated by co-expression of fragments without interaction motifs (tissue culture)” value [5] is on record?
Answer: less than 0.5% of Cre activity
